Data taken from patent US20070254850A1.

Molecular target: Fas on primary mouse hepatocytes (mouse) (UniProt P25446)
Assay: cell-based or functional assay

Sequence of UniProt P25446 (P25446 22-327): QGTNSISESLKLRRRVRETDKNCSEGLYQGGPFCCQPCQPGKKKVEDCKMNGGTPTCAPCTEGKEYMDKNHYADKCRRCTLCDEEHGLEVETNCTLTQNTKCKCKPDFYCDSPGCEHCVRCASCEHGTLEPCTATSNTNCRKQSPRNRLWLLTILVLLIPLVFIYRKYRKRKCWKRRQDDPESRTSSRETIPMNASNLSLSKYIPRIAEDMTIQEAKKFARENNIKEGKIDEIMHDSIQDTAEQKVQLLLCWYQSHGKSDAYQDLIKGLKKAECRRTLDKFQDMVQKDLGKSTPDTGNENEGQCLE

TUNEL-stained cells, hepatocytes from Fas (sequence1)-siRNA treated mice (Fas expression silenced), Jo2 500 ng/mL for 24 hours: 7.9%
apoptotic cells by FITC-TUNEL staining, hepatocytes from untreated or mock-treated mice, Jo2 500 ng/mL for 24 hours: 87.8%
Substance: agonistic anti-Fas antibody (Jo2)
